Experimental data as given in the DeepSol protein solubility set.

Test: soluble on expression in E. coli; label from the status in PepcDB or PDB records
For “MDTAGDTKTTDDGGVVNITYMHRLPDSEGMTLVNDIVAKWNKQHPDIQVKATKFDGKASDMIKKLETDVKSGEAPDLAQVGYAELPEVFTKGLLQDVTQYAEQYKNDFASGPYSLVQVGGKAYGLPQDTGPLVYFYNKAEFEKLGITEIPQTADEFIAAAKTAAAAGKYIMSYQPDEAGNMISGLAGASGGWYKVKGDSWVVNTETDGSKATADFYQQLLDAKAATTNPRWDPSFDASIKDGSLIGTVAAAWEAPLFMTSSGGTGSGEWQVAQLGDWFGNAGKTGPDGGSAVAVLKNSKHPKEAMEFLDWFNTQVPDLVSQGLVPAATTEDAETPSEWSTFFGGQDIMKEFKTANNNMGDFTYMPGFSAVAAKMNETAAKATDGSGKVADIFSDAQTTSVDTLKNFGLSVSE”, the “soluble on expression in E. coli” value was “soluble”. For “ATEATNATNNQSTQVSQATSQPINFQVQKDGSSEKSHMDDYMQHPGKVIKQNNKYYFQTVLNNASFWKEYKFYNANNQELATTVVNDNKKADTRTINVAVEPGYKSLTTKVHIVVPQINYNHRYTTHLEFEKAIPTLADAAK”, the “soluble on expression in E. coli” value was “soluble”. With “PVAVYTTHDPQALKITGNRLSCEWLRIPPGTNLSKSAHEGERPEFFKLFKDGVEIPPEKMPSQLSAAGIEVNDCELDIVSADGRIRHVLGNARPLRDEN” the “soluble on expression in E. coli” value was “not soluble”. For “MFKQFIEDAKSIAERDPAATSVLEVIFLYSGFHAVCLHRIAHWFYKRNMRFIARFISQLNRFLTGVEIHPGAKIGKGLFIDHGMGVVIGETAEVGDNCTIYHNVTLGGTGKDKGKRHPTIGNNVLISTGAKVLGPFKVGDNSRIGANAVVLNEVEPNTTVVGVPGRAVKRGNQKIVPSIELDQIHIPDPVAQELCRIKQRLESLEKELMEMRRASQGSNVQEPVPQEKSCEEECKLEMGKEIADNETL”, the “soluble on expression in E. coli” value was “not soluble”. In the case of “MGSDKIHHHHHHMDYKELLEVLRKDLNFKKVDLYQEKSNKTRYREIELGEKSPTIEELISFTDTLGIRLSEFLYRGDITPLAASYYGKRKIEVASLINNFPELEKQFPEIYKDRFKNLQCYTLFTLCLIISKSLNNSLYTFKNKDIRELKNFYKNREVILGADYAILSHLYMAVPEYSNELDFLTEKLFPINQSYGDIHDHAVQLCIKNAVTVFLEKKDFEKADYFLEQFDIVRKVPSFILDGTINLEMIYLKHLRNFLKKRNMEEYLKAVNIVNLFSQLGENDTYKELVKEVTEIARKENFEVPSSLNIIADTFEGVGYLKSDK”, the “soluble on expression in E. coli” value is reported as “not soluble”. In the case of “MSLRVMIVDDHGTNRELCRFILAHIASHIDTFEDGQQAIDAMREMEILPDVILLDVMMPIKDGFVTAKEIRQAFVKHHIPIIFLTVLDDRDSFEKCLALGDDFILKPVERSVLIAKVQAHYRIVKMHNEGHHHHHH”, the “soluble on expression in E. coli” value is reported as “not soluble”. In the case of “MNYSACTSILVGPQATMDGSVLIGRNEDAKAAWPKHFIVHPATTVATPPQFVSTDNGFTMPLPTQAAKYTATPEWTDKYGLFEEDGINEYGVAMSATESTYSNERVLGADPLVKDGLGEEAMVTVVLPYVKTAREGVARLGQLIEQYGTNESNGILFADQQEAWYLETGAGHYWVAQRIPANAYAVVANQMAIQAVDFADADNFMFAKNLQAFVTDNHLNPHPDRFIWREIFGTQDQSDLYYNTPRVWYGQKRFTPQVSQEPQSFDLPFIQYADRLLSVGDAQQYLSSHFEETPYDPVGSGTAEQKHRFRPVSLAKTQESHVLQLRPNMTPGLAGIQWLAMGVGAQSVYVPFYAGIDSTPEAYHLGTETYDSKSAYWTYKLVSVLLDAHYHTALPTVSETQKALRIAFKQAVQETDRGAQTLSGTELSRYLTQRSNEVAELGLKRYRELAATLITRATDLGPLNYHQDLNLLEHHHHHH”, the “soluble on expression in E. coli” value is reported as “not soluble”.
